Each sequence was assayed on Escherichia coli TOP10 (assay: shrunken log2 fold change of peptide-encoding DNA abundance (4.5 h post-induction vs induction); higher = less antimicrobial activity (less host growth inhibition)). Settings: time post-induction: 4.5 h; library: site-saturation at positions 5, 18, 19, 20.
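Also: peptides expressed intracellularly from a pBAD plasmid library in pooled LB shake-flask culture, induced with 0.3% L-arabinose, DNA abundance read by NGS, three biological replicates, DESeq2 with apeglm shrinkage.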

Sequence | shrunken log2 fold change
RRIRCRPPRLPRPRPRPQWEPRP | 0.0667
RRIRTRPPRLPRPRPRPKEKPRP | 0.0414
RRIRHRPPRLPRPRPRPLWNPRP | -1.07
RRIRHRPPRLPRPRPRPWLLPRP | -0.397
RRIRTRPPRLPRPRPRPLVLPRP | -0.162
RRIRDRPPRLPRPRPRPSAVPRP | 0.291
RRIRLRPPRLPRPRPRPQYTPRP | -0.909
RRIRSRPPRLPRPRPRPSCGPRP | -0.0515
RRIRSRPPRLPRPRPRPLIFPRP | -0.403
RRIRGRPPRLPRPRPRPQKVPRP | 0.129
RRIRCRPPRLPRPRPRPCVAPRP | 0.178
RRIRFRPPRLPRPRPRPDMMPRP | -0.0389
RRIRPRPPRLPRPRPRPGCWPRP | 0.621
RRIRYRPPRLPRPRPRPCIKPRP | 1.75
RRIRSRPPRLPRPRPRPFYCPRP | -0.14
RRIRWRPPRLPRPRPRPCNRPRP | -0.0268
RRIRARPPRLPRPRPRPHKNPRP | 0.0543
RRIRMRPPRLPRPRPRPHPVPRP | 0.0384
RRIRFRPPRLPRPRPRPTDTPRP | -0.263
RRIRVRPPRLPRPRPRPCVDPRP | -0.0658
RRIRDRPPRLPRPRPRPSYAPRP | -0.0918
RRIRNRPPRLPRPRPRPNYFPRP | 0.169
RRIRMRPPRLPRPRPRPTQRPRP | 0.968
RRIRTRPPRLPRPRPRPDFWPRP | 0.413
RRIRKRPPRLPRPRPRPTYSPRP | -0.191

Sequence | shrunken log2 fold change
RRIRARPPRLPRPRPRPRPYPRP | 0.375
RRIRIRPPRLPRPRPRPQGHPRP | -0.0464
RRIRGRPPRLPRPRPRPDMGPRP | 0.269
RRIRYRPPRLPRPRPRPCMLPRP | -1.02
RRIRIRPPRLPRPRPRPSVFPRP | -0.219
RRIRFRPPRLPRPRPRPAPMPRP | 0.282
RRIRARPPRLPRPRPRPHIIPRP | -0.0334
RRIRPRPPRLPRPRPRPSMPPRP | -0.208
RRIRLRPPRLPRPRPRPAIWPRP | 0.016
RRIRPRPPRLPRPRPRPIKHPRP | -0.31
RRIRMRPPRLPRPRPRPGQMPRP | 0.123
RRIRFRPPRLPRPRPRPSDYPRP | -0.219
RRIRFRPPRLPRPRPRPQLFPRP | 0.104
RRIRMRPPRLPRPRPRPYQFPRP | -0.125
RRIRFRPPRLPRPRPRPIVGPRP | -0.0769
RRIRERPPRLPRPRPRPSTHPRP | -0.663
RRIRHRPPRLPRPRPRPNQMPRP | -0.0904
RRIRRRPPRLPRPRPRPARRPRP | 0.546
RRIRMRPPRLPRPRPRPYVCPRP | -0.00867
RRIRMRPPRLPRPRPRPTVKPRP | -0.0616
RRIRRRPPRLPRPRPRPWVWPRP | 0.00495
RRIRCRPPRLPRPRPRPGPDPRP | 0.359
RRIRCRPPRLPRPRPRPEAPPRP | 0.755
RRIRSRPPRLPRPRPRPYSRPRP | -0.00979
RRIRFRPPRLPRPRPRPGIFPRP | -0.218

Sequence | shrunken log2 fold change
RRIRMRPPRLPRPRPRPTTHPRP | 0.295
RRIRTRPPRLPRPRPRPCFCPRP | -0.259
RRIRLRPPRLPRPRPRPTCIPRP | -0.123
RRIRPRPPRLPRPRPRPTFPPRP | 0.025
RRIRCRPPRLPRPRPRPKVFPRP | 0.0792
RRIRYRPPRLPRPRPRPMSVPRP | -0.0288
RRIRHRPPRLPRPRPRPFALPRP | 0.051
RRIRVRPPRLPRPRPRPEKFPRP | -0.208
RRIRSRPPRLPRPRPRPSKYPRP | -0.345
RRIRSRPPRLPRPRPRPVDDPRP | -0.14
RRIRRRPPRLPRPRPRPHHSPRP | -0.57
RRIRQRPPRLPRPRPRPIQMPRP | -0.0176
RRIRKRPPRLPRPRPRPETFPRP | -0.00962
RRIRFRPPRLPRPRPRPRTLPRP | 0.165
RRIRFRPPRLPRPRPRPAYSPRP | 0.00204
RRIRRRPPRLPRPRPRPITEPRP | 0.0622
RRIRGRPPRLPRPRPRPFIWPRP | 0.351
RRIRSRPPRLPRPRPRPWVWPRP | 0.39
RRIRFRPPRLPRPRPRPRIRPRP | -0.075
RRIRLRPPRLPRPRPRPGTIPRP | -0.689
RRIRCRPPRLPRPRPRPPCHPRP | 0.3
RRIRLRPPRLPRPRPRPWHDPRP | -0.205
RRIRTRPPRLPRPRPRPWVCPRP | -1.58
RRIRTRPPRLPRPRPRPQKNPRP | -0.419
RRIRLRPPRLPRPRPRPNHTPRP | -0.33

Sequence | shrunken log2 fold change
RRIRQRPPRLPRPRPRPPTHPRP | 0.106
RRIRMRPPRLPRPRPRPSGAPRP | 1.13
RRIRFRPPRLPRPRPRPKSFPRP | -0.0388
RRIRSRPPRLPRPRPRPCSIPRP | -0.153
RRIRQRPPRLPRPRPRPMSSPRP | -0.0871
RRIRYRPPRLPRPRPRPAQVPRP | -0.0734
RRIRARPPRLPRPRPRPCTLPRP | 0.151
RRIRARPPRLPRPRPRPKFEPRP | 0.574
RRIRARPPRLPRPRPRPHKLPRP | 0.214
RRIRRRPPRLPRPRPRPHVDPRP | 0.027
RRIRERPPRLPRPRPRPNNYPRP | -0.821
RRIRPRPPRLPRPRPRPNEYPRP | -0.783
RRIRCRPPRLPRPRPRPMYGPRP | -0.675
RRIRYRPPRLPRPRPRPLNCPRP | -0.295
RRIRLRPPRLPRPRPRPTRMPRP | 0.513
RRIRYRPPRLPRPRPRPQVGPRP | -0.0385
RRIRHRPPRLPRPRPRPPMGPRP | 0.343
RRIRARPPRLPRPRPRPMIEPRP | 0.314
RRIRKRPPRLPRPRPRPHLIPRP | 0.108
RRIRFRPPRLPRPRPRPWKMPRP | -0.211
RRIRIRPPRLPRPRPRPCNCPRP | 0.174
RRIRHRPPRLPRPRPRPSCCPRP | -0.343
RRIRSRPPRLPRPRPRPWIQPRP | -0.00956
RRIRGRPPRLPRPRPRPACYPRP | 0.896
RRIRLRPPRLPRPRPRPFFPPRP | -0.225

Sequence | shrunken log2 fold change
RRIRTRPPRLPRPRPRPAGPPRP | -0.257
RRIRRRPPRLPRPRPRPWDTPRP | -0.139
RRIRPRPPRLPRPRPRPYGLPRP | -0.857
RRIRARPPRLPRPRPRPERTPRP | 0.143
RRIRVRPPRLPRPRPRPLCPPRP | -0.153
RRIRSRPPRLPRPRPRPISIPRP | 0.0336
RRIRMRPPRLPRPRPRPANIPRP | -0.0889
RRIRCRPPRLPRPRPRPIVWPRP | 0.102
RRIRERPPRLPRPRPRPNISPRP | -1.14
RRIRIRPPRLPRPRPRPCHLPRP | -0.281
RRIRERPPRLPRPRPRPRQDPRP | -0.0529
RRIRRRPPRLPRPRPRPLFNPRP | -0.162
RRIRWRPPRLPRPRPRPNMNPRP | -0.345
RRIRNRPPRLPRPRPRPIKDPRP | -0.4
RRIRSRPPRLPRPRPRPDMSPRP | -0.0189
RRIRYRPPRLPRPRPRPWKIPRP | -0.245
RRIRFRPPRLPRPRPRPLVLPRP | -0.251
RRIRGRPPRLPRPRPRPCTHPRP | -0.0414
RRIRARPPRLPRPRPRPYNSPRP | -1.21
RRIRNRPPRLPRPRPRPPMIPRP | 0.102
RRIRARPPRLPRPRPRPAEPPRP | 0.443
RRIRLRPPRLPRPRPRPEADPRP | 0.357
RRIRERPPRLPRPRPRPGTGPRP | 0.229
RRIRARPPRLPRPRPRPTQLPRP | 0.611
RRIRTRPPRLPRPRPRPECHPRP | -0.247

Sequence | shrunken log2 fold change
RRIRVRPPRLPRPRPRPVHQPRP | 0.241
RRIRMRPPRLPRPRPRPHMIPRP | -0.159
RRIRGRPPRLPRPRPRPKWKPRP | 0.202
RRIRMRPPRLPRPRPRPILWPRP | 0.00288
RRIRGRPPRLPRPRPRPCLGPRP | 0.0741
RRIRRRPPRLPRPRPRPMHPPRP | 0.552
RRIRCRPPRLPRPRPRPVDDPRP | 0.157
RRIRDRPPRLPRPRPRPYFLPRP | -0.49
RRIRHRPPRLPRPRPRPWQSPRP | -0.0359
RRIRNRPPRLPRPRPRPFAMPRP | -0.177
RRIRGRPPRLPRPRPRPIRKPRP | 0.124
RRIRPRPPRLPRPRPRPPKFPRP | 0.0927
RRIRPRPPRLPRPRPRPAFNPRP | -0.0727
RRIRARPPRLPRPRPRPMKLPRP | 0.0594
RRIRIRPPRLPRPRPRPLIGPRP | -0.0888
RRIRARPPRLPRPRPRPSILPRP | -0.156
RRIRNRPPRLPRPRPRPAFYPRP | -0.065
RRIRYRPPRLPRPRPRPHFYPRP | -0.662
RRIRHRPPRLPRPRPRPWLHPRP | -0.00987
RRIRPRPPRLPRPRPRPCDFPRP | -0.179
RRIRPRPPRLPRPRPRPWIAPRP | 0.0544
RRIRYRPPRLPRPRPRPMHYPRP | -1.03
RRIRRRPPRLPRPRPRPCCDPRP | 0.583
RRIRYRPPRLPRPRPRPLKTPRP | 0.0308
RRIRIRPPRLPRPRPRPTRIPRP | 0.0411
